2 molecules from patent publication EP1198239B1 (Cancer Research Ventures Limited, dated 2007) can be followed below.

Assay [1] addresses Kid (Escherichia coli plasmid R1) (UniProt P13976). Kind of assay: cell-based or functional assay.
The target in another assay is T1, Kid (Escherichia coli plasmid R1, UniProt P13976 24-133).
T1 construct: expressed from p424Met25Kid in yeast and from pNATHA2 in HeLa cells; also called ParD kid toxin; killing determinant
T1 sequence (looked up): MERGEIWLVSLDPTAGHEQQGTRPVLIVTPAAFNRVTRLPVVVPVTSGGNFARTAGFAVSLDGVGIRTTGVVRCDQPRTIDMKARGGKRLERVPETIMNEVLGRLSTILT
Kind of assay: co-retention of untagged Kid with HisKis on Ni2+-activated chelating sepharose; Kid released only by denaturation (eluted at 5.5 M guanidinium chloride).

Some results are limits rather than exact numbers.

As to Kis (from UniProt P13975 1-85), in assay [1], the dead cells (trypan blue), all other samples (incl. kis+/kid+ HeLa cells without Doxycyclin, Kis expressed) was below 9%; the dead cells (trypan blue), kis+/kid+ HeLa cells in presence of Doxycyclin, day five was 32%; the dead cells (trypan blue), kis+/kid+ HeLa cells in presence of Doxycyclin, day ten is 65%.

B1: HisKis (other, Escherichia coli plasmid R1, UniProt P13975 1-85, looked up)
chain: MHTTRLKRVGGSVMLTVPPALLNALSLGTDNEVGMVIDNGRLIVEPYRRPQYSLAELLAQCDPNAEISAEEREWLDAPATGQEEI
notes: Co-expressed with Kid from pRG-HisKisKid in E. coli C600 or TG1; also called His-tagged Kis; ParD kis antitoxin with N-terminal His tag; not shown: N-terminal His tag and linker from vector pET15b, subcloned into pRG-recA-NHis
As to B1, the binding result with Kid was “binds”.
